Laboratory results published in article PMC5035049, “Solution Structure of the Cuz1 AN1 Zinc Finger Domain: An Exposed LDFLP Motif Defines a Subfamily of AN1 Proteins” (PLoS ONE, 2016).
Where a chain is given by its changes, count along the chain named.

B1: GST-Cuz1, full length wild type (plasmid pJH150) (natural protein, S. cerevisiae, UniProt P53899 1-274, looked up)
chain: MSAAIEKETGMLDVGKHCAYCRQLDFLPFHCSFCNEDFCSNHRLKEDHHCRWLLEHEEVHKTEKSPSKSRDGSSSNDEAYFKSLLPERASVRIQRVSETREPLRGSNTAKVSSTLNSKTLDKIFKFFQRNEKRKSNNKSKKNFGSSSNKIIQLANLKKIAKGDPKIPMQNRIYIWCYLVDGDETDIAKEDTRMPLYINKMWPVGRAMDYLSIQLNVKSSTLTNSSSNDKFQLCKLKEGKQVSFYNIGASLRVTNEIKDLDTLYLVHNNADEKSN
notes: Cuz1 (systematic name Ynl155w), S. cerevisiae, 274 amino acids, full length; also called Ynl155w; GST-tagged Cuz1
B2: GST-Cuz1 LDFL→AAAA, full length (plasmid pJH171) (natural protein, S. cerevisiae, UniProt P53899 1-274, looked up)
chain: B1 chain with L24A, D25A, F26A, L27A
notes: Cuz1 (systematic name Ynl155w), S. cerevisiae, 274 amino acids, full length, with LDFL (L24, D25, F26, L27) changed to AAAA; Made by site-directed mutagenesis of pJH150; also called Cuz1^LDFL→AAAA mutant; Cuz1 LDFL mutant

Target: T1, 12xHis-SUMO-Cdc48 (S. cerevisiae, UniProt P25694 1-835)
T1 construct: Cdc48, multifunctional ATPase, S. cerevisiae, full length; also called 12xHis-Sumo-tagged Cdc48; p97 in higher organisms
T1 sequence (P25694 whole entry): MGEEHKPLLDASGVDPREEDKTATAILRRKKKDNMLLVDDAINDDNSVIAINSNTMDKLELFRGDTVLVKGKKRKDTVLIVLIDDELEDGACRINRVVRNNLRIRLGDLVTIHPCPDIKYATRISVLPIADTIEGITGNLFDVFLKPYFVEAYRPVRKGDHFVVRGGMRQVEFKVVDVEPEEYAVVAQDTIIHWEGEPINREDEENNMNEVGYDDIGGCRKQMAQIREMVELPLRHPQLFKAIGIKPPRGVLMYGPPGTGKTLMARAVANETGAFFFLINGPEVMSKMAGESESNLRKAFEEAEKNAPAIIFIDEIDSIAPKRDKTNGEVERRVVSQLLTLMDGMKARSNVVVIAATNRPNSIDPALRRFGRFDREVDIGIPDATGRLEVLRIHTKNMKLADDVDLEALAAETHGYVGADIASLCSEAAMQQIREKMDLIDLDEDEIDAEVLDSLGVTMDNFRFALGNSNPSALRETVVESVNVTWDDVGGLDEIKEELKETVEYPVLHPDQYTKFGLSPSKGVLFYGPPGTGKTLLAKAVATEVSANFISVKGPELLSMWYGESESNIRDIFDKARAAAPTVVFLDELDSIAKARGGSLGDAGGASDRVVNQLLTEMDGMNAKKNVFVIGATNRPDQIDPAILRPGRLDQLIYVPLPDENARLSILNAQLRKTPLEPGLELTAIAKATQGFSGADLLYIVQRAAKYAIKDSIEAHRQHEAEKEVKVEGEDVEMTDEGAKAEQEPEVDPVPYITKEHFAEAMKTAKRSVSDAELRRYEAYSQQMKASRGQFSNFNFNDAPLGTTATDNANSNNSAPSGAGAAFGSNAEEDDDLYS
Assay: pull-down; GST-tagged Cuz1 species added to 12xHis-Sumo-tagged Cdc48 or to beads alone; bound Cuz1 seen by SDS-PAGE and anti-Cuz1 immunoblot; as previously described in ref. 7
Settings: both partners purified

| Binder | binding result |
| --- | --- |
| B1 | binds |
| B2 | binds |
